US20210292414A1 (H LUNDBECK A S, published 2021)

T1: hRim
T1 chimeric human/tetraodon Sortilin extracellular region, BAP tag: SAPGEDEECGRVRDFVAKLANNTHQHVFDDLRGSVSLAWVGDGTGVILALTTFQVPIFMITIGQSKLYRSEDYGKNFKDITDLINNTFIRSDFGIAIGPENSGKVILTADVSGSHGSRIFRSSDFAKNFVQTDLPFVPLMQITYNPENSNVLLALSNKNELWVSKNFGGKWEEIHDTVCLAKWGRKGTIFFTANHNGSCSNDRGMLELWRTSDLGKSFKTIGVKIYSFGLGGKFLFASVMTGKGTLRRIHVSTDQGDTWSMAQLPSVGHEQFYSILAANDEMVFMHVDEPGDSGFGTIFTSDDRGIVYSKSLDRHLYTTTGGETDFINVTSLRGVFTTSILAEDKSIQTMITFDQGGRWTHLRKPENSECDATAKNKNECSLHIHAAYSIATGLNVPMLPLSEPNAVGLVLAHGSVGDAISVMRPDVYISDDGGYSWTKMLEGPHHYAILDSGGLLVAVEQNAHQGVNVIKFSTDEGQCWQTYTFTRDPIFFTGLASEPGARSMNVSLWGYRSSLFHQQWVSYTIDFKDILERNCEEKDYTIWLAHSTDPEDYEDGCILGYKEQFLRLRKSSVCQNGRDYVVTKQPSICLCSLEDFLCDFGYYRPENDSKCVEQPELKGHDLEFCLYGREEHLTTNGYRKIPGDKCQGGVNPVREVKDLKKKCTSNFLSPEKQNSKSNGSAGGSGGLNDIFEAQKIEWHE

T2: Sortilin SORTECDBAP_hB01-05 (human/tetraodon chimera)
T2 construct: Shuffle construct: chimeric human/tetraodon Sortilin ECD with BAP tag
T2 chain: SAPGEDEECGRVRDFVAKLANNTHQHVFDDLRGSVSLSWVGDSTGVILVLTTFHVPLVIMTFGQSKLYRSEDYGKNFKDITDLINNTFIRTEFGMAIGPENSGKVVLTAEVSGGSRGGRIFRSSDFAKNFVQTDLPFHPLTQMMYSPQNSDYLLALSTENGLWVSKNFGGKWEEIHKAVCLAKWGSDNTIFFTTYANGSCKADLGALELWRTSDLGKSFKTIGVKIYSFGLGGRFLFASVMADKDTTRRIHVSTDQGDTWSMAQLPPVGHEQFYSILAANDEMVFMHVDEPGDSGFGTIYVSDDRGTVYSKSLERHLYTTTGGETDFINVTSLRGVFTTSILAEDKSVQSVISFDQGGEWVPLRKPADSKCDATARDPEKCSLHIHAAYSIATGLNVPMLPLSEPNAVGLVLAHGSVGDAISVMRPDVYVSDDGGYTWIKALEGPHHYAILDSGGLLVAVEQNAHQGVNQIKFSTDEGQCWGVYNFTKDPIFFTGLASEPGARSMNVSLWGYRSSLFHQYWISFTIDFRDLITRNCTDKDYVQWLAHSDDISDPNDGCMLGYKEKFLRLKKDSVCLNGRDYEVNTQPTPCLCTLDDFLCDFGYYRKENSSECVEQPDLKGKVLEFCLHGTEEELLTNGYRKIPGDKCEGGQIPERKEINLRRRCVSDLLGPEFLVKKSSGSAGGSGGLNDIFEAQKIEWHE

T3: Sortilin SORTECDBAP_hB12390 (human/tetraodon chimera)
T3 construct: Shuffle construct: chimeric human/tetraodon Sortilin ECD with BAP tag
T3 chain: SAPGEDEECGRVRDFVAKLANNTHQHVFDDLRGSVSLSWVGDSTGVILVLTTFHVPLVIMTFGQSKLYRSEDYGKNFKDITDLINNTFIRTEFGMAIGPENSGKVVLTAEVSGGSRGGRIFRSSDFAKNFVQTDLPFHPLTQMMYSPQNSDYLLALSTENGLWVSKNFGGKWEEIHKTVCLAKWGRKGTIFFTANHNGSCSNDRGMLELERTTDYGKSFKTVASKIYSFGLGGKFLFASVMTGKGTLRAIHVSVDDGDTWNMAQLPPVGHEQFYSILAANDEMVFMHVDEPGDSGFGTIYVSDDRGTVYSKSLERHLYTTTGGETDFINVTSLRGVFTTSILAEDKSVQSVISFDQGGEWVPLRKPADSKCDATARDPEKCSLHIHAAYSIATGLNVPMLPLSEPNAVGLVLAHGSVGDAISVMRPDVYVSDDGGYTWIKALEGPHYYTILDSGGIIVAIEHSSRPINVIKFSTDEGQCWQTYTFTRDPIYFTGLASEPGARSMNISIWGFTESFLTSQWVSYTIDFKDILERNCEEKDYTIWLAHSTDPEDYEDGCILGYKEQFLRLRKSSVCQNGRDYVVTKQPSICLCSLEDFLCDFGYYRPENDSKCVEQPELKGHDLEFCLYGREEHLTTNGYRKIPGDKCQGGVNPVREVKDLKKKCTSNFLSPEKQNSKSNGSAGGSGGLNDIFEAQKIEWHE

T4: Sortilin SORTECDBAP_hB45678 (human/tetraodon chimera)
T4 construct: Shuffle construct: chimeric human/tetraodon Sortilin ECD with BAP tag
T4 chain: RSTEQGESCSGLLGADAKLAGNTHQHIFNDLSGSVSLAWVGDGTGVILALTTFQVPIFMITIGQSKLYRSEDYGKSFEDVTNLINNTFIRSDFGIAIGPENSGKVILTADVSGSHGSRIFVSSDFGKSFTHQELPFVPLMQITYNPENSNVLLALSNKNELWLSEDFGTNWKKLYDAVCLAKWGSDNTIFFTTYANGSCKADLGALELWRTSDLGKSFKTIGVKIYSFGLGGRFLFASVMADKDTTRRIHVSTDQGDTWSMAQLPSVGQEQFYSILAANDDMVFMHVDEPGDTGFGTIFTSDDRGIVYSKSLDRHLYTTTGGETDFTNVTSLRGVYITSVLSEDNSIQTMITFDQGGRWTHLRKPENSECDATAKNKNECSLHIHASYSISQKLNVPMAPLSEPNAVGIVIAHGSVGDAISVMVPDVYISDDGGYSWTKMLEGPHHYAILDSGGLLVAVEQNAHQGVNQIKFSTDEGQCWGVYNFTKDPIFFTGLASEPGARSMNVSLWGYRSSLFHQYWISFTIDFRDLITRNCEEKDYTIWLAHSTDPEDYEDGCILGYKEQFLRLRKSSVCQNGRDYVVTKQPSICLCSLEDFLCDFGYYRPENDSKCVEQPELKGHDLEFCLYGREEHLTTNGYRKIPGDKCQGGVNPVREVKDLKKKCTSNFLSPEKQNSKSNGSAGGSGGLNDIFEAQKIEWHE


Legend:
Assay in all cases: BLI (Octet384RED)
hRim = target: T1, hRim
[1] = target: T2, Sortilin SORTECDBAP_hB01-05
[2] = target: T3, Sortilin SORTECDBAP_hB12390
[3] = target: T4, Sortilin SORTECDBAP_hB45678

| EC50 (hRim) [ng/mL] | binding result [1] | EC50 [2] [ng/mL] | EC50 [3] [ng/mL] | Binder |
| --- | --- | --- | --- | --- |
| 1.26 | no binding | 1.06 | 1.19 | Antibody 6003-900 (antibody, human IgG1, V domains shown, also called antibody 900; Sortilin human antibody 900) VH: EVQLVESGGGLVKPGGSLRLSCAASGFTFSSYSMNWVRQAPGKGLEWVSSISSSSSYIYYADSVKGRFTISRDNAKNSLYLQMNSLRAEDTAVYYCARRGSGSYDAFDIWGQGTMVTVSS VL: EIVLTQSPDFQSVTPKEKVTITCRASQSIGYSLHWYQQKPDQSPKLLIKYASQSFSGVPSRFSGSGSGTDFTLTINSLEAEDAAAYYCHQSSSLPLTFGGGTKVEIK |
| 5.02 | no binding | 3.36 | 4.16 | Antibody 6003-799 (antibody, human IgG1, V domains shown) VH: QVQLVESGGGVVQPGRSLRLSCAASGFTFSSYGMHWVRQAPGKGLEWVTVISYDGSNKYYADSVKGRFTISRDNSKNTLYLQMNSLRAEDTAVYYCAKLTGDAFDIWGQGTMVTVSS VL: EIVLTQSPATLSLSPGERATLSCRASQSVSSYLVWYQQKPGQAPRLLIYHASNRATGIPARFSGSGSGTDFTLTISSLEPEDFAVYYCQQRSNWPRITFGQGTRLEIK |
| 2.31 | no binding | 1.89 | 2.08 | Antibody 6003-822 (antibody, human IgG1, V domains shown) VH: EVQLLESGGGLVQPGESLTLSCAASGFTLSSYAMSWVRQAPGKGLEWVSSISGRLGTTYYAASVKGRFTISRDNSKNTLYLQMNSLRAEDTAIYSCAKAPSDAFDIWGQGTMVTVSS VL: EIVLTQSPATLSLSPGERATLSCRASQSVSSYLAWYQQKPGQAPRLLIYDASNRATGIPARFSGSGSGTDFTLTISSLEPEDFAVYYCQQRSNWPIFTFGPGTKVDIK |
| 4.42 | no binding | 3.36 | 3.45 | Antibody 6003-886 (antibody, human IgG1, V domains shown) VH: QVQLVQSGAEVKKPGASVKVSCKASGYTFTKYGISWVRQAPGQGLEWMGWISAYNGNTNYAQKLQDRVTMTTDTFTSTAYMELRSLRSDDTAVYFCARDGPLTGDFTFYGMDVWGQGTTVTVSS VL: EIVLTQSPATLSLSPGERATLSCRASQSVSSYLAWYQQKPGQAPRLLIYDASNRATGIPARFSGSGSGTDFTLTISSLEPEDFAVYYCQQRSNWPPFTFGPGTKVDIK |
| 2.59 | no binding | 1.84 | 2.23 | IgG1-6003-910 (antibody, V domains shown, also called Antibody 6003-910) VH: not shown VL: EIVLTQSPATLSLSPGERATLSCRASQSVSSYLVWYQQKPGQAPRLLIYDASNRATGIPARFSGSGSGTDFTLTISSLEPEDFAVYYCQQRSNWPPTFGQGTRLEIK |
| 3.08 | no binding | 2.36 | 2.57 | IgG1-6003-972 (antibody, V domains shown, also called Antibody 6003-972) VH: QVQLVESGGGVVQPGRSLRLSCAASGFTFSDYAMHWVRRAPGKGLEWVVVISYDGSNKYYADSVKGRFTISRDNSKNTLYLQMNSLRAEDTAVYYCARDPSGGWYFDLWGRGTLVTVSS VL: EIVLTQSPATLSLSPGERATLSCRASQSVSSYLAWYQQKPGQAPRLLIYDASNRATGIPARFSGSGSGTDFTLTISSLEPEDFALYYCQQRSHWPRTFGQGTKVEIK |
